This note sets out measurements from article PMC12560246, “Calorimetric characterization of the stability and activity of trimethylamine‐N‐oxide (TMAO) demethylase from Methylocella silvestris BL2” (Protein Science : A Publication of the Protein Society, 2025).

In series [1] the target is trimethylamine-N-oxide demethylase (Tdm) from Methylocella silvestris BL2 (Methylocella silvestris BL2). Put plainly: SEC; analytical SEC, HiLoad 16/600 Superdex 200 pg, 50 mM TRIS pH 7.9, 150 mM NaCl, 0.5 mL/min; column calibrated with globular proteins; 0.5 mL of concentrated IMAC fractions injected.
Substrate in series [2]: C[N+](C)(C)[O-]
Description: isothermal titration calorimetry, multiple injection, Michaelis-Menten fit. Particulars: 50 mM KPi pH 7.0, 25 °C, 100 nM Tdm, multiple injections of 600 μM TMAO. The series is classed as biochemical, Methylocella silvestris. From the text:
isothermal titration calorimetry, multiple injection, Michaelis-Menten fit on Tdm (trimethylamine-N-oxide demethylase)

Several values for one entry are separate records, joined by “and”; a condition that tells them apart may be missing. Identical values can stand only once.

Take “trimethylamine-N-oxide demethylase (Tdm) from Methylocella silvestris BL2 (enzyme)”: in series [1], the stoichiometry N was 8 and 5.

B1: Tdm (trimethylamine-N-oxide demethylase) (Methylocella silvestris BL2) (protein)
chain: MNVNAAAPKGSFDLDAPRRVQTLSAAGGGGVQFDLSAGDEAIITNLEGGQAGELLTASGEPLRLTPGSAPTDEAGVRAVAGDLAAAFLAARQGTERFLATPLFHAAAEPGETFRFKAEADMRCLLLAPGEPMAPDAQNPPTELRLDIFSSRPTGGAAPPSLAPVKLDLRVDAATARAYRVSAGDYIQIIDVDGRQCSDLVAFDARALAEGRELGVDPTVTRTLMGSATPGPGLHAKYFDQDMNPLFEIVRDTVGRHDTFMLACNAKYYDDMGYPGHANCTDNFNAALAPFGVAPRRGWPAINFFYNTFVAEDNTIGLDEPWSRPGDYVLLRALTDLVCASSSCADDIDPANGWMPTDIHVRVYDAAASFSKGIAHRMTADAAPRLTRESGFHSRTSALTRSFADYRGFWTPQCYASEGPIAEYWACRERAVLIDLSALRKFEITGPDAEILLQSAVTRNIRKLAVGQIVYTAICHEHGGMLDDGTVFRLGDNNFRLVCGEDYCGVFLRELAARQGLRAFVRSSTDQLHNVALQGPKSRDILREILVTPPHRASADELKWFRFTVGKIAGLPVLVSRTGYTGELGYEIWLHPGSAVAVWDALMAAGKPYGIAPFGFAALDMVRIEAGLIFAHHEFCDETDPFEAGIGFAVPAEKADPYVGSEALARRRASPIRRLAGLDVAGNEAVAHGDPVFAGRAQVGVVTSAMRSPVLGRTIALARLDAACASIGTDLEIGKLDGRQKRIAATVARFPHYDPEKARVRA
notes: GenBank version '.14' [sic]
For B1, in series [2], the Km turned out to be 866 ± 72 µM, the Vmax worked out at 18.5 µmol/min and the kcat turned out to be 15.48 ± 0.04 s⁻¹.
